2 molecules from paper doi:10.1101/2024.12.05.626995 (bioRxiv, 2024) can be followed below.

This experiment addresses T1, GST-tagged mature full-length GET3b (Arabidopsis thaliana, UniProt A1L4Y1 68-411).
T1 sequence: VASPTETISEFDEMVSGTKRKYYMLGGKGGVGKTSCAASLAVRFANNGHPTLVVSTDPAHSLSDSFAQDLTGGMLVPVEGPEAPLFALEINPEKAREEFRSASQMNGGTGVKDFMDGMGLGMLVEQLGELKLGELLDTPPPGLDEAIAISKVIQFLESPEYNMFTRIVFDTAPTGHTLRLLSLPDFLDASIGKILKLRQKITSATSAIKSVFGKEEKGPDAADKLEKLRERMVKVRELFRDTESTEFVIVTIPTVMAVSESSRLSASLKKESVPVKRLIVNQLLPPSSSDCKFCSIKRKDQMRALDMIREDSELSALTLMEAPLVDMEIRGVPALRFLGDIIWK
Put plainly: pull-down.

B1: His-tagged C-terminal region of ALB3 (aa 350-462) (domain or fragment)
chain: VYLRKLGGAKPNMDENASKIISAGRAKRSIAQPDDAGERFRQLKEQEKRSKKNKAVAKDTVELVEESQSESEEGSDDEEEEAREGALASSTTSKPLPEVGQRRSKRSKRKRTV
Regarding B1, the binding result was “binds”.

B2: His-tagged C-terminal region of ALB4 (aa 334-499) (domain or fragment)
chain: VWLQKYGGAKNPVEKFTNLVTKEDKTQQIEKSFSEPLVQKSVSELKIPREKGGEKVTPECPKPGERFRLLKEQEAKRRREKEERQKAEAALSNQNTDKAHEQDEKSDTAIVAEDDKKTELSAVDETSDGTVAVNGKPSIQKDETTNGTFGIGHDTEQQHSHETEKR
B2: the binding result was “binds”.
